Data reported in the supplement of paper PMC5998384.

Experiments:
HeLa Kyoto [1] = assay: solubility in G1/S (NP-40 vs SDS abundance) (log2 ratio); higher = more soluble; conditions: cell cycle stage: G1/S
HeLa Kyoto [2] = assay: solubility change mitosis vs G1/S (difference of NP-40 vs SDS log2 ratios) (log2 ratio difference); higher = more soluble in mitosis
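Wherever solubility change mitosis vs G1/S (difference of NP-40 vs SDS log2 ratios) is given: synchronized HeLa Kyoto cells (double thymidine block for G1/S, nocodazole release for mitosis), protein amounts in NP-40 versus SDS lysates quantified by mass spectrometry, three biological replicates.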
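Wherever solubility in G1/S (NP-40 vs SDS abundance) is given: HeLa Kyoto cells arrested at G1/S by double thymidine block, proteins quantified by TMT10plex mass spectrometry in mild NP-40 versus SDS extracts, three biological replicates.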

Sequence | solubility in G1/S (log2) (HeLa Kyoto [1]) | solubility change mitosis (log2) (HeLa Kyoto [2])
MAHYKAADSKREQFRRYLEKSGVLDTLTKVLVALYEEPEKPNSALDFLKHHLGAATPENPEIELLRLELAEMKEKYEAIVEENKKLKAKLAQYEPPQEEKRAE [MYCBP] | -0.523 | 0.968
MAKFGVHRILLLAISLTKCLESTKLLADLKKCGDLECEALINRVSAMRDYRGPDCRYLNFTKGEEISVYVKLAGEREDLWAGSKGKEFGYFPRDAVQIEEVFISEEIQMSTKESDFLCLLGVSYTFDNEDSELNGDYGENIYPYEEDKDEKSSIYESDFQIEPGFYATYESTLFEDQVPALEAPEDIGSTSESKDWEEVVVESMEQDRIPEVHVPPSSAVSGVKEWFGLGGEQAEEKAFESVIEPVQESSFRSRKIAVEDENDLEELNNGEPQTEHQQESESEIDSVPKTQSELASESEHIPKPQSTGWFGGGFTSYLGFGDEDTGLELIAEESNPPLQDFPNSISSDKEATVPCTEILTEKKDTITNDSLSLKPSWFDFGFAILGFAYAKEDKIMLDDRKNEEDGGADEHEHPLTSELDPEKEQEIETIKIIETEDQIDKKPVSEKTDESDTIPYLKKFLYNFDNPWNFQNIPKETELPFPKQILDQNNVIENEETGEFSIDNYPTDNTKVMIFKSSYSLSDMVSNIELPTRIHEEVYFEPSSSKDSDENSKPSVDTEGPALVEIDRSVENTLLNSQMVSTDNSLSSQNYISQKEDASEFQILKYLFQIDVYDFMNSAFSPIVILTERVVAALPEGMRPDSNLYGFPWELVICAAVVGFFAVLFFLWRSFRSVRSRLYVGREKKLALMLSGLIEEKSKLLEKFSLVQKEYEGYEVESSLKDASFEKEATEAQSLEATCEKLNRSNSELEDEILCLEKELKEEKSKHSEQDELMADISKRIQSLEDESKSLKSQVAEAKMTFKIFQMNEERLKIAIKDALNENSQLQESQKQLLQEAEVWKEQVSELNKQKVTFEDSKVHAEQVLNDKESHIKTLTERLLKMKDWAAMLGEDITDDDNLELEMNSESENGAYLDNPPKGALKKLIHAAKLNASLKTLEGERNQIYIQLSEVDKTKEELTEHIKNLQTEQASLQSENTHFENENQKLQQKLKVMTELYQENEMKLHRKLTVEENYRLEKEEKLSKVDEKISHATEELETYRKRAKDLEEELERTIHSYQGQIISHEKKAHDNWLAARNAERNLNDLRKENAHNRQKLTETELKFELLEKDPYALDVPNTAFGREHSPYGPSPLGWPSSETRAFLSPPTLLEGPLRLSPLLPGGGGRGSRGPGNPLDHQITNERGESSCDRLTDPHRAPSDTGSLSPPWDQDRRMMFPPPGQSYPDSALPPQRQDRFCSNSGRLSGPAELRSFNMPSLDKMDGSMPSEMESSRNDTKDDLGNLNVPDSSLPAENEATGPGFVPPPLAPIRGPLFPVDARGPFLRRGPPFPPPPPGAMFGASRDYFPPGDFPGPPPAPFAMRNVYPPRGFPPYLPPRPGFFPPPPHSEGRSEFPSGLIPPSNEPATEHPEPQQET [CTAGE5] | -0.0196 | 0.181
MAKGRVAERSQLGAHHTTPVGDGAAGTRGLAAPGSRDHQKEKSWVEAGSARMSLLILVSIFLSAAFVMFLVYKNFPQLSEEERVNMKVPRDMDDAKALGKVLSKYKDTFYVQVLVAYFATYIFLQTFAIPGSIFLSILSGFLYPFPLALFLVCLCSGLGASFCYMLSYLVGRPVVYKYLTEKAVKWSQQVERHREHLINYIIFLRITPFLPNWFINITSPVINVPLKVFFIGTFLGVAPPSFVAIKAGTTLYQLTTAGEAVSWNSIFILMILAVLSILPAIFQKKLKQKFE [TMEM41B] | -0.0617 | 0.0116
MALEQALQAARQGELDVLRSLHAAGLLGPSLRDPLDALPVHHAARAGKLHCLRFLVEEAALPAAARARNGATPAHDASATGHLACLQWLLSQGGCRVQDKDNSGATVLHLAARFGHPEVVNWLLHHGGGDPTAATDMGALPIHYAAAKGDFPSLRLLVEHYPEGVNAQTKNGATPLYLACQEGHLEVTQYLVQECGADPHARAHDGMTPLHAAAQMGHSPVIVWLVSCTDVSLSEQDKDGATAMHFAASRGHTKVLSWLLLHGGEISADLWGGTPLHDAAENGELECCQILVVNGAELDVRDRDGYTAADLSDFNGHSHCTRYLRTVENLSVEHRVLSRDPSAELEAKQPDSGMSSPNTTVSVQPLNFDLSSPTSTLSNYDSCSSSHSSIKGQHPPCGLSSARAADIQSYMDMLNPELGLPRGTIGKPTPPPPPPSFPPPPPPPGTQLPPPPPGYPAPKPPVGPQAADIYMQTKNKLRHVETEALKKELSSCDGHDGLRRQDSSRKPRAFSKQPSTGDYYRQLGRCPGETLAARPGMAHSEEVRARQPARAGCPRLGPAARGSLEGPSAPPQAALLPGNHVPNGCAADPKASRELPPPPPPPPPPLPEAASSPPPAPPLPLESAGPGCGQRRSSSSTGSTKSFNMMSPTGDNSELLAEIKAGKSLKPTPQSKGLTTVFSGIGQPAFQPDSPLPSVSPALSPVRSPTPPAAGFQPLLNGSLVPVPPTTPAPGVQLDVEALIPTHDEQGRPIPEWKRQVMVRKMQLKMQEEEEQRRKEEEEEARLASMPAWRRDLLRKKLEEEREQKRKEEERQKQEELRREKEQSEKLRTLGYDESKLAPWQRQVILKKGDIAKY [ESPN] | -0.041 | -0.0492
MALFVRLLALALALALGPAATLAGPAKSPYQLVLQHSRLRGRQHGPNVCAVQKVIGTNRKYFTNCKQWYQRKICGKSTVISYECCPGYEKVPGEKGCPAALPLSNLYETLGVVGSTTTQLYTDRTEKLRPEMEGPGSFTIFAPSNEAWASLPAEVLDSLVSNVNIELLNALRYHMVGRRVLTDELKHGMTLTSMYQNSNIQIHHYPNGIVTVNCARLLKADHHATNGVVHLIDKVISTITNNIQQIIEIEDTFETLRAAVAASGLNTMLEGNGQYTLLAPTNEAFEKIPSETLNRILGDPEALRDLLNNHILKSAMCAEAIVAGLSVETLEGTTLEVGCSGDMLTINGKAIISNKDILATNGVIHYIDELLIPDSAKTLFELAAESDVSTAIDLFRQAGLGNHLSGSERLTLLAPLNSVFKDGTPPIDAHTRNLLRNHIIKDQLASKYLYHGQTLETLGGKKLRVFVYRNSLCIENSCIAAHDKRGRYGTLFTMDRVLTPPMGTVMDVLKGDNRFSMLVAAIQSAGLTETLNREGVYTVFAPTNEAFRALPPRERSRLLGDAKELANILKYHIGDEILVSGGIGALVRLKSLQGDKLEVSLKNNVVSVNKEPVAEPDIMATNGVVHVITNVLQPPANRPQERGDELADSALEIFKQASAFSRASQRSVRLAPVYQKLLERMKH [TGFBI] | -0.072 | -0.149
MALLRRPTVSSDLENIDTGVNSKVKSHVTIRRTVLEEIGNRVTTRAAQVAKKAQNTKVPVQPTKTTNVNKQLKPTASVKPVQMEKLAPKGPSPTPEDVSMKEENLCQAFSDALLCKIEDIDNEDWENPQLCSDYVKDIYQYLRQLEVLQSINPHFLDGRDINGRMRAILVDWLVQVHSKFRLLQETLYMCVGIMDRFLQVQPVSRKKLQLVGITALLLASKYEEMFSPNIEDFVYITDNAYTSSQIREMETLILKELKFELGRPLPLHFLRRASKAGEVDVEQHTLAKYLMELTLIDYDMVHYHPSKVAAAASCLSQKVLGQGKWNLKQQYYTGYTENEVLEVMQHMAKNVVKVNENLTKFIAIKNKYASSKLLKISMIPQLNSKAVKDLASPLIGRS [CCNB2] | 0.241 | 0.0941
MALRSAQGDGPTSGHWDGGAEKADFNAKRKKKVAEIHQALNSDPTDVAALRRMAISEGGLLTDEIRRKVWPKLLNVNANDPPPISGKNLRQMSKDYQQVLLDVRRSLRRFPPGMPEEQREGLQEELIDIILLILERNPQLHYYQGYHDIVVTFLLVVGERLATSLVEKLSTHHLRDFMDPTMDNTKHILNYLMPIIDQVNPELHDFMQSAEVGTIFALSWLITWFGHVLSDFRHVVRLYDFFLACHPLMPIYFAAVIVLYREQEVLDCDCDMASVHHLLSQIPQDLPYETLISRAGDLFVQFPPSELAREAAAQQQAERTAASTFKDFELASAQQRPDMVLRQRFRGLLRPEDRTKDVLTKPRTNRFVKLAVMGLTVALGAAALAVVKSALEWAPKFQLQLFP [TBC1D20] | -0.427 | -0.0896
